Reference: the Human Domainome abundance scans (Beltran et al. 2025)
± gives the uncertainty stated by the source.

B1: Far upstream element-binding protein 1, residues 184 to 257; numbered along this chain, Q96AE4 (parent)
chain: GNAVQEIMIPASKAGLVIGKGGETIKQLQERAGVKMVMIQDGPQNTGADKPLRITGDPYKVQQAKEMVLELIRD

Variants of: B1
Test: abundance fitness (aPCA) (normalised: wild type 0, dead -1); higher = more abundant; growth selection in yeast, the domain comes from the species named
Settings: Homo sapiens

| Variant | abundance fitness |
| --- | --- |
| GNAVQEIMIPASKAGLVIGKGGETIKQLQERAGVKMVMIQDGPQNTGADDPLRITGDPYKVQQAKEMVLELIRD | -0.525 ± 0.052 |
| GNAVQEIMIPASKAGLVIGKGGETIKQLQERAGVKMVMIQDGPQNTGADYPLRITGDPYKVQQAKEMVLELIRD | 0.018 ± 0.054 |
| GNAVQEIMIPASKAGLVIGKGGETIKQLQERAGVKMVMIQDGPQNTGADTPLRITGDPYKVQQAKEMVLELIRD | -0.019 ± 0.034 |
| GNAVQEIMIPASKAGLVIGKGGETIKQLQERAGVKMVMIQDGPQNTGADCPLRITGDPYKVQQAKEMVLELIRD | -0.057 ± 0.04 |
| GNAVQEIMIPASKAGLVIGKGGETIKQLQERAGVKMVMIQDGPQNTGADLPLRITGDPYKVQQAKEMVLELIRD | 0.019 ± 0.03 |
| GNAVQEIMIPASKAGLVIGKGGETIKQLQERAGVKMVMIQDGPQNTGADEPLRITGDPYKVQQAKEMVLELIRD | -0.202 ± 0.035 |
| GNAVQEIMIPASKAGLVIGKGGETIKQLQERAGVKMVMIQDGPQNTGADRPLRITGDPYKVQQAKEMVLELIRD | -0.005 ± 0.026 |
| GNAVQEIMIPASKAGLVIGKGGETIKQLQERAGVKMVMIQDGPQNTGADIPLRITGDPYKVQQAKEMVLELIRD | -0.068 ± 0.048 |
| GNAVQEIMIPASKAGLVIGKGGETIKQLQERAGVKMVMIQDGPQNTGADVPLRITGDPYKVQQAKEMVLELIRD | -0.005 ± 0.031 |
| GNAVQEIMIPASKAGLVIGKGGETIKQLQERAGVKMVMIQDGPQNTGADSPLRITGDPYKVQQAKEMVLELIRD | -0.068 ± 0.032 |
| GNAVQEIMIPASKAGLVIGKGGETIKQLQERAGVKMVMIQDGPQNTGADHPLRITGDPYKVQQAKEMVLELIRD | -0.04 ± 0.049 |
| GNAVQEIMIPASKAGLVIGKGGETIKQLQERAGVKMVMIQDGPQNTGADAPLRITGDPYKVQQAKEMVLELIRD | -0.027 ± 0.033 |
| GNAVQEIMIPASKAGLVIGKGGETIKQLQERAGVKMVMIQDGPQNTGADWPLRITGDPYKVQQAKEMVLELIRD | -0.058 ± 0.032 |
| GNAVQEIMIPASKAGLVIGKGGETIKQLQERAGVKMVMIQDGPQNTGADPPLRITGDPYKVQQAKEMVLELIRD | -0.202 ± 0.038 |
| GNAVQEIMIPASKAGLVIGKGGETIKQLQERAGVKMVMIQDGPQNTGADNPLRITGDPYKVQQAKEMVLELIRD | -0.071 ± 0.049 |
| GNAVQEIMIPASKAGLVIGKGGETIKQLQERAGVKMVMIQDGPQNTGADGPLRITGDPYKVQQAKEMVLELIRD | -0.201 ± 0.027 |
| GNAVQEIMIPASKAGLVIGKGGETIKQLQERAGVKMVMIQDGPQNTGADMPLRITGDPYKVQQAKEMVLELIRD | -0.035 ± 0.04 |
| GNAVQEIMIPASKAGLVIGKGGETIKQLQERAGVKMVMIQDGPQNTQADKPLRITGDPYKVQQAKEMVLELIRD | -0.027 ± 0.041 |
| GNAVQEIMIPASKAGLVIGKGGETIKQLQERAGVKMVMIQDGPQNTVADKPLRITGDPYKVQQAKEMVLELIRD | -0.054 ± 0.032 |

| Variant | abundance fitness |
| --- | --- |
| GNAVQEIMIPASKAGLVIGKGGETIKQLQERAGVKMVMIQDGPQNTWADKPLRITGDPYKVQQAKEMVLELIRD | -0.157 ± 0.035 |
| GNAVQEIMIPASKAGLVIGKGGETIKQLQERAGVKMVMIQDGPQNTSADKPLRITGDPYKVQQAKEMVLELIRD | -0.001 ± 0.031 |
| GNAVQEIMIPASKAGLVIGKGGETIKQLQERAGVKMVMIQDGPQNTTADKPLRITGDPYKVQQAKEMVLELIRD | -0.018 ± 0.035 |
| GNAVQEIMIPASKAGLVIGKGGETIKQLQERAGVKMVMIQDGPQNTRADKPLRITGDPYKVQQAKEMVLELIRD | -0.096 ± 0.028 |
| GNAVQEIMIPASKAGLVIGKGGETIKQLQERAGVKMVMIQDGPQNTGANKPLRITGDPYKVQQAKEMVLELIRD | -0.034 ± 0.045 |
| GNAVQEIMIPASKAGLVIGKGGETIKQLQERAGVKMVMIQDGPQNTGACKPLRITGDPYKVQQAKEMVLELIRD | -0.057 ± 0.048 |
| GNAVQEIMIPASKAGLVIGKGGETIKQLQERAGVKMVMIQDGPQNTGATKPLRITGDPYKVQQAKEMVLELIRD | -0.045 ± 0.035 |
| GNAVQEIMIPASKAGLVIGKGGETIKQLQERAGVKMVMIQDGPQNTGAYKPLRITGDPYKVQQAKEMVLELIRD | -0.015 ± 0.052 |
| GNAVQEIMIPASKAGLVIGKGGETIKQLQERAGVKMVMIQDGPQNTGAIKPLRITGDPYKVQQAKEMVLELIRD | -0.148 ± 0.046 |
| GNAVQEIMIPASKAGLVIGKGGETIKQLQERAGVKMVMIQDGPQNTGALKPLRITGDPYKVQQAKEMVLELIRD | -0.052 ± 0.032 |
| GNAVQEIMIPASKAGLVIGKGGETIKQLQERAGVKMVMIQDGPQNTGAFKPLRITGDPYKVQQAKEMVLELIRD | -0.081 ± 0.053 |
| GNAVQEIMIPASKAGLVIGKGGETIKQLQERAGVKMVMIQDGPQNTGAGKPLRITGDPYKVQQAKEMVLELIRD | -0.084 ± 0.026 |
| GNAVQEIMIPASKAGLVIGKGGETIKQLQERAGVKMVMIQDGPQNTGAPKPLRITGDPYKVQQAKEMVLELIRD | -0.01 ± 0.038 |
| GNAVQEIMIPASKAGLVIGKGGETIKQLQERAGVKMVMIQDGPQNTGASKPLRITGDPYKVQQAKEMVLELIRD | -0.077 ± 0.032 |
| GNAVQEIMIPASKAGLVIGKGGETIKQLQERAGVKMVMIQDGPQNTGARKPLRITGDPYKVQQAKEMVLELIRD | -0.129 ± 0.028 |
| GNAVQEIMIPASKAGLVIGKGGETIKQLQERAGVKMVMIQDGPQNTGAWKPLRITGDPYKVQQAKEMVLELIRD | -0.114 ± 0.035 |
| GNAVQEIMIPASKAGLVIGKGGETIKQLQERAGVKMVMIQDGPQNTGAVKPLRITGDPYKVQQAKEMVLELIRD | -0.068 ± 0.03 |
| GNAVQEIMIPASKAGLVIGKGGETIKQLQERAGVKMVMIQDGPQNTGAQKPLRITGDPYKVQQAKEMVLELIRD | -0.096 ± 0.043 |
